Measured values published in a protein production outcome set (Wang et al. 2014).

Test: label from the status in PepcDB records

Sequence | protein production
MIIEGPVIKFGDKIDTDIIIPARYLKYTDPQYLAQHVMEPLDPEFYKKASKGVIIVAGKVFGMGSSREQAAIALKAAGVKAVVAESFARIFYRNAINNGLPVITLPNSTKEIDENSYVKIDVETGEILVGNKVLKGKGITGMALEILQAGGIMEYLKKMQTVNRN | failed
MAIKITPDEFSLLIQRLNKKWRVFAPSAEFRGGRFSDTDNIIYQRISGWRDLIWHEKSHMSPNTIIAPITETLFYFDKDTIQIAETDTSPIIIFARACDINAMSRLDYMYLSNGNNSDYSYQLLREHIRFVLIECEKSFENCFCVSMGTNKTDCYSAAMRFSDEGALVSIRDPFIEAAIQGLGQEADYTPSFVSENRETVVTPDSVCRDPQKIRDILTRHPLWDAYDSRCISCGRCTTGCPTCTCYSVFDVAYDENPQRGERRRQWASCMVPGFSDMAGGHGFREKPGERLRYRALHKVNDYKARNGIEHMCVGCGRCDDRCPQYIKFSLIINKMTAAVRQALAEEA | failed
MKINKELYSIALVLTVLFFVFSILISSVASAAQVTRIGSGSDPAIYGNKIVWTSGGVIHLYDLTSKTGTTVSSSAASHPAIYGNKLVWHDKSSGVPRLTVYDIPSGARSYITQDVGNYSFPAIYGNRIVWSANYNRSSYSYNVYMRDISTSTQVWIAQGENPEIYETKITYGYDDDDGRNIAVYDVNTKETINVHHSSQVFNPHMYGNKVIWSNFYTRSGFIQMYDLVAKKAIDVTSDNTGNTLYGSDTIDAGDDTGTHIDISGDEIVYSKSGDDQFGYAGVYVYDIPSAKSTPVYIYPRGTHTTPDIYNDTIVWGIDSSYGGVNDTGIYICDLSVTNTLPPVAEFTANTTYGAAPLVVLFTDASTGGVPTSWIWDFGHGIDSKHVMNATHTFTKPGNYTISLTAGNDAGNNKVMKPNYIVVTNPFPVANFSSNVTHGYPPLSIQFTDLSQNATGWNWDFGDGSNSTQRSPVHEYADSGIYSVNLTAINENGTDSKLTTITVMQLVGVGPYAYITNSGDNNVSVIDTTTNKVTAMIPVGNYPMGVAVTLDGKKVYVTNFFGRTISVIDATKNKVTATIPLGNSPRGVAVSPDGKRVYVPHHEVGNPSNNTTLIIDTDTNEVEATVLVGEVPFGVAVTLDGKKVYVTNLRDKTVSVIDTATNTVIATIPVGDDPCGVAISPDGKKVYVGNRGDSTVSIIDTATNTVTATVDLENSPYGIVVNPTGTKVYVAGTKKAYAAGTVDGFVSVIDTATNKVTATIPVGNSPFGVAVTPDGSKVYVANQLRDTVSVIDTSTNKVTATMNVGRNPNSFGQFIGSLQAQPIFPVANFSSNVTEGYAPLTVKFNDMSQKATSRIWDFNGDGQLDSSNINPVYIYANPGTYTVNLTVSNKNGTDSKTAAINVLTPSSSSGVSSHSSSSGG | failed
MSETERTLVIIKPDAVVRGLIGEIISRFEKKGLKIVGMKMIWIDRELAEKHYEEHREKPFFKALIDYITKTPVVVMVLEGRYAVEVVRKMAGATDPKDAAPGTIRGDFGLEVSDAICNVIHASDSKESAEREISLFFKPEELFEYPRAADWFYKKGI | not failed
MDKKAMWDRFYTENGSKGQFKNFEWFFGFPSVKDLVLPALQAMSCSHSGPLHILDMGCGTSALGPCIYSTSPCAVRVTCADISPVAVKLMEEHTKSTSTQPCNPSSALVFLELDCTQMTGHFKSRSLDLILDKGTTDALVRSKEGQVKAGQILRQSLQVLRPSGSFLQFSDEDPDARLIWLEREVQGAEVTADVGVQEIGELRGVSYFCYQISPRSRPHS | failed
MSSRQQDTAPCNHRFSGSVPVFSAAPCPHPAASFISLPAGSPYDEKRFVPAPRRHVPMLNYIWSGLIIGSLLFALTVDTQELVENRFRNETALPVALDFPDGYAPDARRQPVEIRIDSATYRDVYGVNAAPDPVYAGTLVQTQEGRKVEFDPDADLPEPLATIQSFHATDDNPALRGALQGTSRTTAGVGRTETALQFEPVRFRKLNDIAQAALNFAETAASLALSLIGVLGLMLGLVKIGEEAGLIESLTGIVQPILSPLFPNVPDDHPALANISLNLLANVFGLGNAATPLGIKAMEDLQELNPSDEKASDDMVMLLALNTSSVQLVPPSLLVAIMGLQINQLFFSITLATLCSTVAGILGTLALHRLPYFRATAPHRTADAEDPDE | failed
MIRPARHIAAMSPYALAQLKAPAGKRLISLSQNESLRPPSRRAIEAAARAGDAGHLYPDPDWSALRAALSGLHGIPVEGILCGNGSMELIACLAQAFADERNAILAPAHGYPFFRSAAQMARARFDLAAERDRHVCVDAMLAAVQPDTRIVFVANPGNPTGTRIPRHELVRLREGLPDDTLLVIDEAYGEFADHLGEAMFDLVGRCDTVVLRTFSKAYGLAGMRVGWGLFPPEIARELRKVMNPNNIAVAGQLAATAALADQDYMVETCRQTAALRDGLRARLSKAGYDVPESFSNFVLIRMESPDDARRADEALRAEGVFLRPQGGVGLADSLRVTIGPAEKIDIAAGLLERWAEGKKT | failed
MPLDRDWIAQRIPHAGAMCLLDRVLTWDAGRLRCVAVSHLSPGNPLRAGGRLSVVCGIEYAAQATAVHGALRSAGEGEAPRSGFLVSVRDVEFHVRRLDTLDGDLVVEVECLTGDGNDALYRFRLLAADGRELLTGRLAVRLDAEAGLEHHHHHH | not failed
MFGQWEFDVSPTGGIAVASTEVEHFAGSQHEVDTAEVPSAAWGWSRIDHRTWHIVGLCIFGFLLAMLRGNHVGHVEDWFLITFAAVVLFVLARDLWGRRRGWIR | failed
MAIQLKKGNRISLKKEAPGLKKVMLGLGWDMATSSSGGGFFGIFKKPAGSIDLDSGVLCLDSQGKLNSASDFVYYANLNHKSGAIAHQGDNLTGAGEGDDEQIFVDLEQVPATIQSLLFTVTIYQGRQRGQEFGQIKNAFVRLVDLSNNQEIAHYKLSGETYQGKTGMLMAELRREENGWAMTALGDGLDPQDSENLLKKYR | failed
MIHLVSLLALAFAVSLDSFGVGLTYGLRKMKIPFKSLLFIAGCSAVSILIAMGFGMTIQQYLSPAIAESLGGIILILIGCWALYQAFRPAKNGHKTKDDHVILNFEIKMLGVVIRILRKPMVADFDNSGAITGREAVILGIALSLDAFGAGIGAALIGFHPLYMAVSVAVMSALFVSLGMKSGYRFADSYWIKRFSFIPGLLLVLIGVFNLMM | failed
MPYVFSFKMPQEQGQMFQYYPVYMVLPWEQPQQTVPRSPQQTRQQQYEEQIPFYAQFGYIPQLAEPAISGGQQQLAFDPQLGTAPEIAVMSTGEEIPYLQKEAINFRHDSAGVFMPSTSPKPSTTNVFTSAVDQTITPELPEEKDKTDSLREP | failed
MKVQATFATLIALAAYFPAANAWKDCIIQRYKDGDVNNIYTANRNEEITIEEYKVFVNEACHPYPVILPDRSVLSGDFTSAYADDDESC | not failed
MNRSFNIIISFKFIFWNMKSKPMNVIFDVLNEIHGFFGALWAGAALLNFLIKPQDKRQFERIGRFFLITSIITIITGIIIFAYIYLAPYQGNLFLVAAILRSSLDIRIRAFLNLIGGAFGLLAFGAGIVISNRIRLMVRVKEGDVTILELRNSVSNLSKISLVFLLISLAMMILAGSIAQVIT | failed
MGLRDAEVRRAWAARLASWLPAPPGDVLDLGCGTGSLSLLAAEQGHRVTGVDLSPAMVELARTKLAGRDAVFLTGDAAAPPVGEQRFDAVLVRHVLWTLPDPGRALRHWRQLLRPGGRLVLVEGVWGSVSPVGIPADRVTALLGPLTGQARVERLSDDPSLWGREVADERYAVVATYGLEHHHHHH | failed
MDYREVDSTSEFVCRLEHGGDWRAQIEAFADEQGIDAGFFYGLGAVQDAELMFYDQDRTEYDSLTFDEPLEVAACMGNISHFDGERFAHTHAVLSRPDGEAVAGHLNAGTVWAGELYVRGFDTELQREHDEPTDLDLWNILEHHHHHH | failed
MPSEAKYTWDQELNEINIQFPVTGDADSSAIKIRIVGKKICVKNQGEIVIDGELLHEVDVSSLWWVINGDVVDVNVTKKRNEWWDSLLVGSESVDVQKLAENKHADMSMLDAEAREVVEKMMHNTSGKDSE | not failed
MNWKRLVQFYSVPPSQAALALGMIGLGQAWALYVPDIGTPIRPFLASFGALLLAPVLIKYATNPRLFMADIKHPLSGSLMAPMSMALLILTDYLASVAPLIAYPLWCLAVLLHFTMMVLFFGFQLMNFKMSNIVPSWFLYPVGLISSSLAGSQFGHNLFSETLAIMCIGIYFFMLPLVLYRLVFFGSLPRRARPTLAIMAAPVNLSLAAYLVNFPQPDPILTGALAGIAITMTLLIYLCYFRLLRLKFQPSIAAVTFPSVISAIAMHRLTSFFAQSHPQWHWLHDFGFLELSIATVLVVWVSAGYVKMYWPEIVRTPTKQA | failed
